From EP3459964A1, “GALECTIN-1 BINDING PEPTIDES AND USE THEREOF FOR DIAGNOSTIC AND THERAPEUTIC PURPOSE” (Université de Mons, priority 2017, dated 2019)
Where no end group is shown, it is not given here.

Key:
Human gal-1 = biological target: T1, Human gal-1 (Homo sapiens, UniProt P09382); experiment: Gal-1 binding of the isolated phage clones (ELISA), affinity constants against gal-1 or control proteins (HSA, collagen); conditions: phage clone expressing the peptide; for Affinity 2 Ka^Gal-1 / Ka^Coll / Affinity 1 Ka^Gal-1 / Ka^HSA: Ka = 1/K*d; for Affinity 2 Ka^Gal-1 / Ka^Coll: Coll = collagen; for Affinity 1 Ka^Gal-1 / Ka^HSA: one representative clone per sequence; for Affinity 3 Ka^Gal-1/ ((Ka^HSA + Ka^Coll)/2): specific affinity vs mean of control proteins
T1 construct: purchased Peprotech
T1 sequence (P09382 whole entry): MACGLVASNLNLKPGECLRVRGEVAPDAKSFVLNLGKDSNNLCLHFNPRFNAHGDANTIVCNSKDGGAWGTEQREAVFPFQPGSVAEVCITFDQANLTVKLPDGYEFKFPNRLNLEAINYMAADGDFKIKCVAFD
Method: Human gal-1 (Peprotech) and control proteins (HSA and collagen) were immobilized on 96-well ELISA plates at a concentration of 10 µg/mL in NaHCO3 0.1 M, pH 8.6, overnight at 4°C. The wells were then blocked with Protein-Free Blocking Buffer (PFBB, Thermo Fisher Scientific, p/a Perbio Science BVBA, Aalst, Belgium), 1 hour at room temperature. Fifty clones issued from each phage display experiment were first screened at one concentration (5 x 10^11 phages/100 µL for PDE1; 10^11 phages/100 µL for PDE2) prepared in Tris buffered saline (TBS: 50 mM Tris-HCl, 150 mM NaCl, pH 7.5) supplemented with 0.5% Tween-20 (TBST). The clones were incubated for 2 hours at room temperature, under mild agitation. To determine the apparent dissociation constant (K*d) of the selected clones, ten serial dilutions of phages (generally ranging from 5x10^12 to 10^7 phages/100 µL) were incubated with gal-1 or control proteins in the same conditions as for the first clones' screening. The bound phages were detected by an incubation (1 hour, room temperature) with horseradish peroxidase (HRP)-conjugated anti-M13 monoclonal antibody (Amersham Pharmacia Biotech Benelux, Roosendaal, The Netherlands) diluted 1:5000 in TBS supplemented with 0.5% BSA. After each incubation step, the wells were rinsed with an automated microplate washer (Beckman Coulter, Analis, Suarlée, Belgium). Finally, the wells were filled with 200 µL/well of 2,2'-azino-bis(3-ethylbenzothiazoline-6-sulphonic acid (ABTS, 22 mg) diammonium salt (Sigma-Aldrich) solution prepared in 50 mM sodium citrate pH 4.0 completed with 0.05% H2O2. The optical density (OD) was measured (405 nm, differential filter: 630 nm) using a microplate reader (StatFax-2100, Awareness Technology, Fisher Bioblock Scientific, Tournai, Belgium).

[1] = Circular dichroism study of secondary structure in distilled water; format: physicochemical; conditions: non-biotinylated peptides, 1 mM in distilled water, 20 °C and 37 °C
Method: Non-biotinylated peptides dissolved in distilled water at 1 mM were used for structure analysis. Circular Dichroism (CD) spectra were recorded using a ChirascanTM Plus CD Spectrometer (Applied Photophysics Inc., Leatherhead, United Kingdom). The measurements were carried out using 1 mm quartz Suprasil cells from Hellma Analytics (Müllheim, Germany). The spectra were recorded between 180 and 350 nm, with a bandwidth of 0.5 nm, time per point 2 s and three repetitions, both at 20 °C and 37 °C. The CD RMS (Root Mean Square) noise is around 0.03 mdeg at 180 nm. The aqueous solution reference spectra were used as baselines and were automatically subtracted from the CD spectra of the samples.

[2] = biological target: T2, gal-1 expressed by human tumor tissues (Homo sapiens, UniProt P09382); experiment: Binding of biotinylated peptides to human thyroid biopsies (immunohistochemistry, ImageJ semi-quantitative analysis); conditions: for staining produced by peptides in healthy thyroids and thyroid adenomas compared to papillary, follicular and anaplastic thyroid cancer: ImageJ analysis of immunohistochemistry microphotographs; for targeting of the papillary areas: biotinylated peptides 20 µM, human papillary thyroid cancer biopsy sections
T2 construct: from tissue; host or cells: paraffin-embedded human thyroid biopsy sections (healthy, inflammatory, adenoma, papillary, follicular, anaplastic)
T2 sequence (P09382 whole entry): as above
Method: Immunohistochemistry evaluation was performed on 5 µm thick sections mounted on silane-coated glass slides. The paraffin-embedded tissue specimens were deparaffinized and rehydrated. After unmasking the epitopes in citrate buffer pH 6.0, the endogenous peroxidase activity was blocked with 0.7% H2O2. Sections were then blocked with streptavidin - biotin blocking kit (Vector Labconsult) and with 0.5% casein (Sigma-Aldrich).
The binding of biotinylated peptides to tumor biopsies was validated by using a similar protocol. However, no epitope unmasking was performed, while casein blocking was replaced by PFBB. Endogenous peroxidases were blocked with 1% H2O2. The biotinylated peptides (stock prepared in distilled water) were diluted in TBS at a concentration of 20 µM and incubated with tumor biopsies overnight at 4 °C. The bound peptides were then detected with 5 µg/mL of anti-biotin antibody made in goat (Vector Labconsult) and with 1 µg/mL of biotinylated anti-goat IgG made in horse (both from Vector Labconsult) both diluted in TBS completed with 0.5% BSA […]. After incubation with Vectastain ABC kit (Vector Labconsult), the staining with DAB/H2O2 and Hemalun counterstaining were performed as described above.
Gal-1 staining on immunohistochemistry microphotographs (DM2000 Leica microscope equipped with a DFC 425C camera, Leica Microsystems) was semi-quantitatively analyzed by ImageJ software (National Institutes of Health, USA). The expression of gal-1 was compared in 5 cases of healthy thyroid, 2 cases of inflammatory thyroid (patients with goiter), 6 cases of thyroid adenoma, 6 cases of papillary thyroid cancer, 4 cases of follicular variant of papillary thyroid cancer and 6 cases of anaplastic cancer. The binding of peptides 1 and 7 was compared in 5 cases of healthy thyroid, 2 cases of inflammatory thyroid, 6 cases of thyroid adenoma, 3 cases of papillary thyroid cancer, 3 cases of follicular thyroid cancer and 6 cases of anaplastic thyroid cancer. The total area occupied by brown stained pixels was determined after thresholding the background staining on blank histological slices, where the primary antibody was excluded. The total stained area is then automatically generated after pixel segmentation.

TPC-1 cells = experiment: Cell adhesion assay: TPC-1 cell adhesion to immobilized gal-1; format: cell-based, human; conditions: 500 nM, TPC-1 adhesion to gal-1, non-biotinylated peptides
Method: Gal-1 (Peprotech) was immobilized on 96-well culture plates at 20 µg/mL overnight at 4°C. After blocking with 0.1% BSA prepared in phosphate buffered saline (PBS, per liter: 8 g NaCl, 0.2 g KCl, 2.31 g Na2HPO4 × 12 H2O 0.2 g KH2PO4, pH 7.4), non-biotinylated peptides (P1, P7 or P1Scr) diluted in RPMI 1640 culture medium at 0.5 µM or 50 µM were pre-incubated with gal-1 for 2 hours. In the meanwhile, TPC-1 cells (10^5 cells/well) were pre-incubated with the desired concentration of peptides in RPMI 1640 culture medium for 30 minutes before seeding them into the wells. The cells were then incubated (37 °C, 5% CO2) with gal-1 immobilized on wells for one hour. The negative control cells were incubated with RPMI 1640 culture medium alone. After washing steps and plate centrifugation between them, cells were fixed 15 minutes with buffered 4% formalin (from Sigma-Aldrich) and washed before staining with 1% crystal violet. Wells were rinsed and crystal violet was solubilized with dimethyl sulfoxide (DMSO, Sigma-Aldrich) before measuring absorbance at 570 nm (differential filter at 630 nm) with a microplate reader. The percentage of adherent cells was obtained by calculating the percentage ratio of OD measured for TPC-1 incubated with peptides over the OD of negative control cells.

Row | Affinity 2 Ka^Gal-1 / Ka^Coll (Human gal-1) | Affinity 1 Ka^Gal-1 / Ka^HSA (Human gal-1) | Affinity 3 Ka^Gal-1/ ((Ka^HSA + Ka^Coll)/2) (Human gal-1) | conformation in aqueous solution (CD signature) [1] | staining produced by peptides in healthy thyroids and thyroid adenomas compared to papillary, follicular and anaplastic thyroid cancer [2] | Sequence | targeting of the papillary areas [2] | decrease of cell adhesion (TPC-1 cells)
1 | 8.15 | 121.56 | 25.66 |  |  | YTFHFDIFQPHF [Peptide P2] |  | 
2 | infinite ratio | infinite ratio | infinite ratio | random coil state | weaker | YSWHIDIVAPRN [Peptide P7, YSWHIDIVAPRN] | efficient targeting of the papillary areas | ~30%
3 |  |  |  | random coil state | weaker | HLWGWLYAPSFQ [Peptide P1, HLWGWLYAPSFQ] | efficient targeting of the papillary areas | around 25%

Second part, the sequence before the results:

Row | Sequence | Affinity 2 Ka^Gal-1 / Ka^Coll (Human gal-1) | Affinity 1 Ka^Gal-1 / Ka^HSA (Human gal-1) | Affinity 3 Ka^Gal-1/ ((Ka^HSA + Ka^Coll)/2) (Human gal-1) | conformation in aqueous solution (CD signature) [1] | staining produced by peptides in healthy thyroids and thyroid adenomas compared to papillary, follicular and anaplastic thyroid cancer [2] | targeting of the papillary areas [2] | decrease of cell adhesion (TPC-1 cells)
4 | HYSWSWIAYSPG [Peptide P3] | 1.35 | 0.99 | 1.14 |  |  |  | 
5 | DWSSWVYRDPQT [Peptide P8] | 27.92 | 1.23 | 2.36 |  |  |  | 
6 | SVYVEISWVRTM [Peptide P6] | 1.17 | 1.17 | 1.17 |  |  |  | 
7 | VHWDFRQWWQPS [Peptide P4] | 1.93 | 1.18 | 1.47 |  |  |  | 
8 | YHHSGPYAGPMW [Peptide P5] | 1.58·10^13 | 1.25 | 2.50 |  |  |  | 
